Test results taken from PMC10042821 (2023).

B1: deoxyhypusine synthase, wild type, His-tagged (enzyme)
chain: MEGSLEREAPAGALAAVLKHSSTLPPESTQVRGYDFNRGVNYRALLEAFGTTGFQATNFGRAVQQVNAMIEKKLEPLSQDEDQHADLTQSRRPLTSCTIFLGYTSNLISSGIRETIRYLVQHNMVDVLVTTAGGVEEDLIKCLAPTYLGEFSLRGKELRENGINRIGNLLVPNENYCKFEDWLMPILDQMVMEQNTEGVKWTPSKMIARLGKEINNPESVYYWAQKNHIPVFSPALTDGSLGDMIFFHSYKNPGLVLDIVEDLRLINTQAIFAKCTGMIILGGGVVKHHIANANLMRNGADYAVYINTAQEFDGSDSGARPDEAVSWGKIRVDAQPVKVYADASLVFPLLVAETFAQKMDAFMHEKNED
B2: eukaryotic translation factor 5A-1 (eIF5A-1), residues 15-151 (domain or fragment)
chain: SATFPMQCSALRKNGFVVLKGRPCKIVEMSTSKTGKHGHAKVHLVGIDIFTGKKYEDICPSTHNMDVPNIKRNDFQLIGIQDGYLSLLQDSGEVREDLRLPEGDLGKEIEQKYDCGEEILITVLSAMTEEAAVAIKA

What was measured:
[1] = target: B2; experiment: MST; + NAD
[2] = target: B2; experiment: MST; + NAD + SPD
[3] = target: T1, deoxyhypusine synthase delY305_I306, patient-derived variant, His-tagged (human, UniProt P49366 1-369, delY305_I306); experiment: MST; + NAD
[4] = target: deoxyhypusine synthase N173S, patient-derived variant, His-tagged (human, UniProt P49366 1-369, N173S); experiment: MST; + NAD + SPD
[5] = target: T1, deoxyhypusine synthase delY305_I306, …; experiment: MST; + NAD + SPD

Row | Kd [1] | Kd [2] | Kd [3] | Kd [4] | Kd [5] | Binder
1 | 27 nM | 81.7 nM |  |  |  | B1
2 |  |  | 368 nM | 426 nM | 1580 nM | B2
